Values belong to the binder of their own block, whether it stands above or below them.
Tests used:
[1] = molecular target: T1, recombinant human LAG-3-his protein (Novoprotein) (human, UniProt P18627 23-450); assay: BLI Octet, Ab on AHC sensor, huLAG-3-his; test group 3
T1 construct: Bought; also called huLAG-3; not shown: His tag
T1 sequence (looked up): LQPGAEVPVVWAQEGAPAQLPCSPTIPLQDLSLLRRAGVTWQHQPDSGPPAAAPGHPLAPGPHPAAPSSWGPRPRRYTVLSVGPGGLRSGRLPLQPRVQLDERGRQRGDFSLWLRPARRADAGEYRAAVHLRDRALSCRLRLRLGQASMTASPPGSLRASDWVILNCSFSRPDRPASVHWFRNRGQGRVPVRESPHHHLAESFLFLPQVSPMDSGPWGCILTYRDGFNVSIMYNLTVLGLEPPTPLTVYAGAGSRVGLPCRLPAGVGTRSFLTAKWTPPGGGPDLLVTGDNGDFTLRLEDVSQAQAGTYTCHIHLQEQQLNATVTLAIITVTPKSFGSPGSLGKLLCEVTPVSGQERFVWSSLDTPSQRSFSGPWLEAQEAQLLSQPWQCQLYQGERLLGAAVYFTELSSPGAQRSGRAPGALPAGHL
Protocol: (§1) All 9 humanized antibodies (Table 25) and a chimeric antibody having the parental murine VH and VL domains (mAb747c) were ranked by dissociation rate constant (koff). Briefly, antibodies were characterized for affinities and binding kinetics by Octet RED96 biolayer interferometry (Pall FortéBio LLC). Antibodies were captured by Anti-HIgG Fc Capture (AHC) Biosensors (Pall) at a concentration of 100 nM for 30 seconds. Sensors were then dipped into running buffer (1× pH7.2 PBS, 0.05% Tween 20, 0.1% BSA) for 60 seconds to check baseline. Binding was measured by dipping sensors into a single concentration of recombinant human LAG-3-his protein (Novoprotein). Dissociation was followed by dipping sensors into running buffer for 1200 seconds. The association and dissociation curves were fitted to a 1:1 Langmuir binding model using FortéBio Data Analysis software (Pall).
(§2) All 13 humanized antibodies (Table 39) and chimeric anti-LAG-3 antibody mAb747c having the parental murine VH and VL domains were ranked by dissociation rate constant (koff) in the same manner described in Example 9.1 supra. In each test group, the off-rates of antibodies were able to be compared with that of mAb747c. The off-rate ratios were calculated by the off-rate of antibody to that of mAb747c of its group and were compared all together. The lower the ratio was, the higher was the affinity of the antibody.

[2] = molecular target: T1, recombinant human LAG-3-his protein …; assay: BLI Octet, Ab on AHC sensor, huLAG-3-his; test group 1
Protocol: as §1, with “All 18” for “All 9”, “(Table 34)” for “(Table 25)”, “by Octet®RED96” for “by Octet RED96”, “(Pall ForteBio” for “(Pall FortéBio”, “by Anti-hIgG” for “by Anti-HIgG”, “(Pall). In each test group, the off-rates of antibodies were able to be compared with that of mAb747c. The off-rate ratios were calculated by the off-rate of antibody to that of mAb747c of its group and were compared all together. The lower the ratio was, the higher was the affinity of the antibody.” for “(Pall).”

[3] = molecular target: T1, recombinant human LAG-3-his protein …; assay: as above; remark: listed apart in the source
Protocol: as §1
(§3) The seven Fab clones were converted to full IgG proteins. Briefly, the VH and VL genes were produced synthetically and then cloned into vectors containing coding sequences for the human IgG1 and human kappa constant domains, respectively. The heavy chain and cognate light chain plasmids were co-transfected into HEK 293E cells, individually. After approximately six days of post-transfection cell culture, the supernatants were harvested and subjected to Protein A affinity chromatography. The affinity of purified antibodies was ranked by Octet® RED96 biolayer interferometry (see, Example 9.1, supra).

[4] = molecular target: T1, recombinant human LAG-3-his protein …; assay: BLI Octet, Ab on AHC sensor, huLAG-3-his; test group 2
Protocol: as §1, with “All 18” for “All 9”, “(Table 34)” for “(Table 25)”, “by Octet®RED96” for “by Octet RED96”, “(Pall ForteBio” for “(Pall FortéBio”, “by Anti-hIgG” for “by Anti-HIgG”, “(Pall). In each test group, the off-rates of antibodies were able to be compared with that of mAb747c. The off-rate ratios were calculated by the off-rate of antibody to that of mAb747c of its group and were compared all together. The lower the ratio was, the higher was the affinity of the antibody.” for “(Pall).”

[5] = molecular target: T1, recombinant human LAG-3-his protein …; assay: BLI Octet, Ab on AHC sensor, huLAG-3-his analyte
Protocol: as §1

[6] = molecular target: T1, recombinant human LAG-3-his protein …; assay: BLI Octet, Ab on AHC sensor, huLAG-3-his; test group 1; remark: listed apart in the source
Protocol: as §1, §2

[7] = molecular target: T1, recombinant human LAG-3-his protein …; assay: BLI Octet, Ab on AHC sensor, huLAG-3-his; test group 4
Protocol: as §1, with “All 18” for “All 9”, “(Table 34)” for “(Table 25)”, “by Octet®RED96” for “by Octet RED96”, “(Pall ForteBio” for “(Pall FortéBio”, “by Anti-hIgG” for “by Anti-HIgG”, “(Pall). In each test group, the off-rates of antibodies were able to be compared with that of mAb747c. The off-rate ratios were calculated by the off-rate of antibody to that of mAb747c of its group and were compared all together. The lower the ratio was, the higher was the affinity of the antibody.” for “(Pall).”

[8] = molecular target: T1, recombinant human LAG-3-his protein …; assay: BLI Octet, Ab on AHC sensor, huLAG-3-his; test group 2; remark: listed apart in the source
Protocol: as §1, §3

[9] = molecular target: T1, recombinant human LAG-3-his protein …; assay: BLI Octet, Ab on AHC sensor, huLAG-3-his; test group 3; remark: listed apart in the source
Protocol: as §1, with “All 18” for “All 9”, “(Table 34)” for “(Table 25)”, “by Octet®RED96” for “by Octet RED96”, “(Pall ForteBio” for “(Pall FortéBio”, “by Anti-hIgG” for “by Anti-HIgG”, “(Pall). In each test group, the off-rates of antibodies were able to be compared with that of mAb747c. The off-rate ratios were calculated by the off-rate of antibody to that of mAb747c of its group and were compared all together. The lower the ratio was, the higher was the affinity of the antibody.” for “(Pall).”

[10] = molecular target: T1, recombinant human LAG-3-his protein …; assay: BLI Octet, Ab on AHC sensor, huLAG-3-his; test group 2; remark: listed apart in the source
Protocol: as §1, §2

[11] = molecular target: T2, human LAG-3 ECD/Fc fusion protein (human); assay: SPR Biacore, HuLAG-3 ECD/Fc on chip, Ab analyte
T2 construct: also called HuLAG-3 ECD/Fc

[12] = molecular target: T2, human LAG-3 ECD/Fc fusion protein; assay: SPR Biacore, HuPD-1 ECD/Fc and HuLAG-3 ECD/Fc both on chip, Ab analyte
[13] = molecular target: T3, human PD-1 expressed on cells (human, UniProt Q15116 25-288); assay: cell RBA FACS, CHO-K1-huPD1; competitor biotin-PD-L2/Fc
T3 construct: whole, on cells; also called CHO-K1/huPD-1; CHO-K1-hPD-1 cells
Protocol: (§4) All 15 humanized antibodies and the chimeric antibody (mAb709c) were characterized by binding ELISA and cell-based RBA. For cell-based RBA, 2×10⁵ cells/well of CHO-K1-huPD1 cells were added to a pre-blocked 96-well round-bottomed plate and after washing, 50 μl antibodies with diluted concentration ranging from 0.064 nM to 200 nM were added to each well. Next, 50 μl of 60 μg/ml biotinylated PD-L1/Fc or biotinylated PD-L2/Fc protein were added. After gentle mixing and incubation at 4° C., the cells were washed and stained by Alexa Fluor™ 488 streptavidin solution (1:1000, ThermoFisher Scientific; Cat. No. S32354). Signals were readout by FACS and curves were fitted by GraphPad software. […] The association and dissociation rate constants, k (M⁻¹ s⁻¹) and koff(s⁻¹), respectively, were determined by making kinetic binding measurements at five different concentrations of human PD-1-His protein at a continuous flow rate of 30 μl/min. The equilibrium dissociation constant KD (M) of the reaction between antibodies and related target proteins was calculated from the kinetic rate constants using the formula KD=koff/kₒₙ. HumAb709-8 had minimal back-mutation(s) while maintaining to the greatest extent the affinity of the parental variable domains on chimeric mAb709c.

[14] = molecular target: T3, human PD-1 expressed on cells; assay: cell RBA FACS, CHO-K1-huPD1; competitor biotin-PD-L1/Fc
Protocol: as §4

[15] = molecular target: T4, human PD-1 ECD/Fc fusion protein (human); assay: SPR Biacore, HuPD-1 ECD/Fc on chip, Ab analyte
T4 construct: also called huPD-1/Fc; HuPD-1 ECD/Fc

human PD-1-His protein = molecular target: T5, human PD-1-His protein (human, UniProt Q15116 25-167, limits assumed); assay: SPR Biacore, Ab captured, huPD-1-His analyte
T5 construct: also called huPD-1; not shown: His tag
Protocol: as §4

[16] = molecular target: T4, human PD-1 ECD/Fc fusion protein; assay: SPR Biacore, HuPD-1 ECD/Fc and HuLAG-3 ECD/Fc both on chip, Ab analyte

T5 sequence (Q15116 25-167 limits assumed): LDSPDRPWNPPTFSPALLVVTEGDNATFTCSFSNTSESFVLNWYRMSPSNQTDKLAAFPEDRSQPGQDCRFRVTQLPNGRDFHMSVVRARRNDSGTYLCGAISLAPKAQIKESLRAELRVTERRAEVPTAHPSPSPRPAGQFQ
T4 sequence (chain, as listed by the source limits assumed): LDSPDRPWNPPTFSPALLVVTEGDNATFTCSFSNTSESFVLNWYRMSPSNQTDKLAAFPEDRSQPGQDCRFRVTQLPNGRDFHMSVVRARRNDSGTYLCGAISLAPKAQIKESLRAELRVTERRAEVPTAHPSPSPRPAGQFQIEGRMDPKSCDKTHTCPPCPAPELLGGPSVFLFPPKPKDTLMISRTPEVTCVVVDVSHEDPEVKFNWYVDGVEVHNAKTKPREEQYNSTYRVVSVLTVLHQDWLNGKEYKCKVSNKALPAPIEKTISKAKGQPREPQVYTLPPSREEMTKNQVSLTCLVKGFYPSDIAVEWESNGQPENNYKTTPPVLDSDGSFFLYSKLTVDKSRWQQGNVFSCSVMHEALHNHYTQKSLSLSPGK
T3 sequence (Q15116 25-288): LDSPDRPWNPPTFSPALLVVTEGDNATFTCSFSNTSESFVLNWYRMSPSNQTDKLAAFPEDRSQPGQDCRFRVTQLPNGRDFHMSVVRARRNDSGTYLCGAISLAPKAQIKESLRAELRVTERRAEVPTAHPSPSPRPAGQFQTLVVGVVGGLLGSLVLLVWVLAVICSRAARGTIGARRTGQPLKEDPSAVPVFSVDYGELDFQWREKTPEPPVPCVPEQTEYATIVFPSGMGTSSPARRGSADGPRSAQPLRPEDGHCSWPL

B1: HumAb747V-73 (antibody, human IgG1, V domains shown)
VH: EVQLVQSGAEVKKPGATVKLSCTASGFNIKDDYMHWVKQRPEQGLDWIGWIVPRNGNTVYASKFQGKATITADTSTNTAYLELSSLRSEDTAVYYCTVYGDYWGQGTTVTVSS
VL: DIQMTQSPSSLSASVGDRVTITCRASQEISGYLSWLQQKPGGAIKRLIYAASTLDSGVPSRFSGSRSGSDYTLTISSLQPEDFADYYCLQYASYPLTFGQGTKLELK
notes: engineered HumAb747-60 variant; human IgG1/kappa constant domains
koff [1]: 0.000321 s⁻¹
off-rate ratio to that of mAb747c [1]: 51%

B4: mAb709c (antibody, V domains shown)
VH: EVKLVESGGGLVKPGGSLKLSCAASGFTFSFYTMSWVRQTPEKRLEWVATISGGGRDTYYPDSVKGRFTISRDNAKNTLYLHMSSLRSEDTALYYCAGQGGNYLFAYWGQGTLVTVSA
VL: DIVMTQSHKFMSTSVGDSVTITCKASQDVNTVVAWYQQKPGQSLKVLISWASTRHTGVPARFTGSGSGTDYTLTISSVQAEDLALYYCQQHYTTPYTFGGGTQLEIK
notes: also called HumAb709c
IC50 [13]: 0.56 nM
IC50 [14]: 0.62 nM
Kd [15]: 0.035 nM
koff [15]: 8.82e-06 s⁻¹
kon [15]: 252000 M⁻¹ s⁻¹
Kd (human PD-1-His protein): 0.567 nM
koff (human PD-1-His protein): 6.88e-05 s⁻¹
kon (human PD-1-His protein): 121000 M⁻¹ s⁻¹
Kd [16]: 0.0337 nM
koff [16]: 9.72e-06 s⁻¹
kon [16]: 288000 M⁻¹ s⁻¹

The next lines start with the values.

koff [2]: 0.00136 s⁻¹
off-rate ratio to that of mAb747c [2]: 100%
koff [3]: 0.0015 s⁻¹
off-rate ratio to that of mAb747c [3]: 100%
koff [4]: 0.00135 s⁻¹
off-rate ratio to that of mAb747c [4]: 100%
koff [5]: 0.000377 s⁻¹
koff [6]: 0.000615 s⁻¹
off-rate ratio to that of mAb747c [6]: 100%
koff [1]: 0.000631 s⁻¹
off-rate ratio to that of mAb747c [1]: 100%
koff [7]: 0.00053 s⁻¹
off-rate ratio to that of mAb747c [7]: 100%
koff [8]: 0.00163 s⁻¹
off-rate ratio to that of mAb747c [8]: 100%
koff [9]: 0.00123 s⁻¹
off-rate ratio to that of mAb747c [9]: 100%
koff [10]: 0.000676 s⁻¹
off-rate ratio to that of mAb747c [10]: 100%
B2: mAb747c (antibody, V domains shown)
VH: EVQLQQSGAELVRPGASVKLSCTASDFNIKDDYMHWVKQRPEQGLDWIGWIVPENGNTEYASKFQGKATITADTSSNTAYLQLSSLTSEDTAVYYCTVYGDYWGQGTTLTVSS
VL: DIQMTQSPSSLSASLGERVSLNCRASQEISGYLSWLQQKPDGTIKRLIYAASTLDSGVPKRFSGSRSGSDYSLTISSLESEDFAAYYCLQYASYPLTFGAGTKLELK
notes: also called mAb717c

Kd [11]: 32.5 nM
koff [11]: 0.000181 s⁻¹
kon [11]: 5580 M⁻¹ s⁻¹
Kd [12]: 16.2 nM
koff [12]: 0.000154 s⁻¹
kon [12]: 9510 M⁻¹ s⁻¹
B3: mAb746c (antibody, V domains shown)
VH: EVQLQQSGAELVRPGASVKLSCTASDFNIKDDYMHWVKQRPEQGLDWIGWIVPENGNTEYASKFQGKATITADTSSNTAYLQLSSLTSEDTAVYYCTVYGDYWGQGTTLTVSS
VL: DIQMTQSPSSLSASLGERVSLNCRASQEISGYLSWLQQKSDGTIKRLIYAASTLDSGVPKRFSGSRSGSDYSLTISSLESEDFADYYCLQYASYPLTFGAGTKLELK

From patent US20210188980A1 (SHANGHAI EPIMAB BIOTHERAPEUTICS, published 2021)
